Experimental data published in the Human Domainome abundance scans (Beltran et al. 2025).

B1: E3 ubiquitin-protein ligase Midline-1, residues 172 to 214; numbered along this chain, O15344 (parent)
chain: GLMCLEHEDEKVNMYCVTDDQLICALCKLVGRHRDHQVAALSE

Variants of: B1
Assay: abundance fitness (aPCA) (normalised: wild type 0, dead -1); higher = more abundant; growth selection in yeast, the domain comes from the species named
Details: Homo sapiens

Abundance fitness of substitutions, site by site:
E8: S 0.375; T 0.398; V 0.072; W -0.348; Y -0.243
D9: A -0.418; C 0.13; E -0.378; F 0.173; G 0.031; H -0.107; I 0.042; K -0.38; L 0.084; M 0.246; N 0.636; P -0.088; Q 0.116; R 0.027; S 0.02; T -0.24; V -0.086; W -0.052; Y -0.113
E10: A -0.133; C -0.062; D -0.164; F -0.136; G -0.316; H 0.066; K 0.063; L -0.214; M -0.029; N 0.093; P -0.498; Q -0.181; R -0.046; S -0.079; T -0.204; V -0.414; W -0.247
K11: A -0.107; C 0.148; D -0.258; E 0.033; F -0.132; G -0.186; H 0.19; I 0.284; M 0.096; N 0.027; P -0.259; Q 0.158; R -0.012; S -0.07; V -0.259; W -0.288
V12: A -0.208; C -0.231; E -0.122; F 0.301; G 0.026; I 0.093; K 0.319; L -0.233; M -0.042; P -0.51; Q 0.328; R 0.024; T -0.149; W -0.251; Y -0.02
N13: A -0.146; C -0.13; D -0.071; E -0.084; F 0.354; G -0.022; K 0.04; L -0.254; P -0.567; Q 0.005; R -0.137; S -0.345; T -0.043; V -0.396; Y -0.108
M14: A 0.043; C 0.137; D 0.09; E 0.176; F -0.451; G 0.059; H -0.112; K 0.121; L -0.022; N -0.028; P -0.405; Q 0.242; R 0.033; S 0.267; T 0.301; V -0.386; W -0.055
Y15: A 0.045; C 0.059; E 0.001; G -0.015; H 0.151; K 0.28; L 0.014; M -0.094; N -0.165; Q 0.315; R 0.258; S -0.023; T -0.288; V -0.014; W -0.089
C16: A -0.569; E -0.185; G -0.291; H -0.215; I -0.127; K -0.298; M -0.674; N -0.183; P -0.289; Q -0.219; R -0.469; S -0.14; T -0.351; V -0.725; W -1.19; Y -0.624
V17: A 0.172; C 0.173; D 0.113; E 0.135; G 0.092; H 0.29; I 0.235; K 0.444; L -0.094; N 0.545; Q 0.275; R 0.176; S 0.174; T -0.027; W -0.176; Y -0.071
T18: C -0.256; D -0.152; K -0.019; L -0.32; M -0.394; N -0.048; P -0.492; Q -0.073; R -0.101; V -0.077; W -0.532; Y -0.482
D19: A -0.928; C -0.175; E -0.012; F -0.218
